Values of other authors, collected in patent publication US20110294730A1, “METHOD OF TREATING GLAUCOMA AND INTRAOCULAR HYPERTENSION” (priority 2010, published 2011).

Test system: trabecular meshwork

B1: IL-Ia: exogenous growth factor (protein, UniProt P01583 113-271, looked up)
Interleukin-1 alpha: SAPFSFLSNVKYNFMRIIKYEFILNDALNQSIIRANDQYLTAAALHNLDEAVKFDMGAYKSSKDDAKITVILRISKTQLYVTAQDEDQPVLLKEMPEIPKTITGSETNLLFFWETHGTKNYFTSVAHPNLFIATKQDYWVCLAGGPPSITDFQILENQA
extracellular acidification: significantly stimulated
